Laboratory results published in paper PMC11960800 (The FASEB Journal, 2025).

T1: fibulin‐4 (FBLN4), recombinant full-length human (human, UniProt O95967 24-443)
T1 sequence (looked up): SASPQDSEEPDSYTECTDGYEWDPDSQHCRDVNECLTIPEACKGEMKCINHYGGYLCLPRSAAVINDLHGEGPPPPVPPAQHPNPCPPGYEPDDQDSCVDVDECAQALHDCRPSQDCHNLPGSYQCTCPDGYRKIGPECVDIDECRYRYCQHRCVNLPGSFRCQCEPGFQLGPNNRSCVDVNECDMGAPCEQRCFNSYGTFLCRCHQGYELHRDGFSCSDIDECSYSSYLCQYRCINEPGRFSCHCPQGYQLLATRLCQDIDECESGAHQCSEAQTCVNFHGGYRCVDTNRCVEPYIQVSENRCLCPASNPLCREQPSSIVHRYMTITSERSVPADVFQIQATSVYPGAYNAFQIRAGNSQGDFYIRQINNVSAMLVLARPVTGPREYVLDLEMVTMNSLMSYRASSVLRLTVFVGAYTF


Key:
Assay in all cases: SPR
[1] = target: latent TGF‐β binding protein‐4, short isoform (LTBP4S), recombinant full-length human (human)
[2] = target: T1, fibulin‐4 (FBLN4), recombinant …
[3] = target: latent TGF‐β binding protein‐4, long isoform (LTBP4L), recombinant full-length human (human, UniProt Q8N2S1-1 28-1624)

koff [1] [s⁻¹]	koff [2] [s⁻¹]	koff [3] [s⁻¹]	Molecule
6.3e-05	–	–	recombinant syndecan-3 ectodomain (SDC3‐ED) (from UniProt O75056 48-387) (domain or fragment)
–	0.00082	5.5e-05	recombinant syndecan-3 ectodomain (SDC3‐ED) (domain or fragment, human, UniProt O75056 48-387, looked up) QRWRSENFERPVDLEGSGDDDSFPDDELDDLYSGSGSGYFEQESGIETAMRFSPDVALAVSTTPAVLPTTNIQPVGTPFEELPSERPTLEPATSPLVVTEVPEEPSQRATTVSTTMATTAATSTGDPTVATVPATVATATPSTPAAPPFTATTAVIRTTGVRRLLPLPLTTVATARATTPEAPSPPTTAAVLDTEAPTPRLVSTATSRPRALPRPATTQEPDIPERSTLPLGTTAPGPTEVAQTPTPETFLTTIRDEPEVPVSGGPSGDFELPEEETTQPDTANEVVAVGGAAAKASSPPGTLPKGARPGPGLLDNAIDSGSSAAQLPQKSILERKEVLV
–	0.00041	–	recombinant syndecan-2 ectodomain (SDC2‐ED) (domain or fragment, human, UniProt P34741 19-144, looked up) ESRAELTSDKDMYLDNSSIEEASGVYPIDDDDYASASGSGADEDVESPELTTSRPLPKILLTSAAPKVETTTLNIQNKIPAQTKSPEETDKEKVHLSDSERKMDPAEEDTNVYTEKHSDSLFKRTE
